Assay [1] has as its target AGFG2.
In assay [2] the target is DPYSL2.
The target in assay [3] is TRANK1.

Substitutions are numbered along the chain they refer to.

TRANK1, sequence (beta, as listed by the source limits assumed, chain 3 of 2, other chains not shown): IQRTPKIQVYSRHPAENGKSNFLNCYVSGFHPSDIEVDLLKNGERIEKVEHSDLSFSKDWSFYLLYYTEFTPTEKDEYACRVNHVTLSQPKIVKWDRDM
AGFG2, sequence (beta, as listed by the source limits assumed, chain 3 of 2, other chains not shown): as above
DPYSL2, sequence (beta, as listed by the source limits assumed, chain 3 of 2, other chains not shown): as above

B1: Molecule B (bispecific antibody, V domains shown)
VH 1: YPQLVESGGGLVKPGGSLRLSCAARYPFTRLDMSWVRQAPGKGLEWVGSISPKGGSTYYNDNVLGRFTISRDNSKNTLYLQMNSLRAEDTAVYYCARDWGFFDNWGQGTLVTVSS
VL 1: AIQMTQSPSSLSASVGDRVTITCRASQSISNYLAWYQQKPGKAPKLLIYNASHPEYDVPSRFSGSGSGTDFTLTISSLQPEDFATYYCQQYSSHPYTFGQGTKLEIK
VH 2: not shown
VL 2: QAVVTQEPSLTVSPGGTVTLTCGSSTGAVTTSNYANWVQEKPGQAFRGLIGGTNKRAPGTPARFSGSLLGGKAALTLSGAQPEDEAEYYCALWYSNLWVFGGGTKLTVL
As to B1, the figures for the % of MAGE-A4 signal, Jurkat-NFAT; grey (>2%) in assay [1], in assay [2] and in assay [3] were 13.3%, 5.19% and 7.67%, respectively.

B2: Molecule A (bispecific antibody, V domains shown)
VH 1: B1 VH 1 with P2V, R25P, Y26L, R30G, N104L
VL 1: B1 VL 1 with N50D, S52N, H53A, P54H, Y56N
VH 2: not shown
VL 2: B1 VL 2
For the molecule B2, the figures for the % of MAGE-A4 signal, Jurkat-NFAT; grey (>2%) in assay [1] and in assay [3] were 86.5% and 4.56%, respectively.

The values above are taken from patent US20260098095A1.
